Data on two molecules can be found in publication PMC4794606 (Molecules and Cells, 2016).

Data set [1] has as its target full length human extracellular superoxide dismutase (residues 1-240), (His)6-FLAG-PreScission site fusion (human) (UniProt P08294). The experiment in a line: SEC.
The data set “SEC” deals with the molecule itself. The experiment in a line: SEC.

As for “full length human extracellular superoxide dismutase (residues 1-240), (His)6-FLAG-PreScission site fusion (from UniProt P08294 19-240) (enzyme)”, the stoichiometry N in data set [1] worked out at 8.

B1: truncated/mature human extracellular superoxide dismutase (residues 19-240), (His)6-FLAG-PreScission site fusion (enzyme, UniProt P08294 19-240, looked up)
chain: WTGEDSAEPNSDSAEWIRDMYAKVTEIWQEVMQRRDDDGALHAACQVQPSATLDAAQPRVTGVVLFRQLAPRAKLDAFFALEGFPTEPNSSSRAIHVHQFGDLSQGCESTGPHYNPLAVPHPQHPGDFGNFAVRDGSLWRYRAGLAASLAGPHSIVGRAVVVHAGEDDLGRGGNQASVENGNAGRRLACCVVGVCGPGLWERQAREHSERKKRRRESECKAA
modifications: N-glycosylated at Asn107
Turning to B1, in the data set “SEC”, the “stoichiometry N” value worked out at 8.

One may read the stoichiometry N as the number of molecules, sites or subunits per partner or assembly.
